Columns and labels:
[1] = molecular target: human GLT25D1/ColGalT1 (procollagen galactosyltransferase 1), amino acids 30-622, wild type (human) (UniProt Q8NBJ5); experiment: cryo-EM structure
cryo-EM structure = molecular target: the molecule itself; experiment: cryo-EM structure

Row | Molecule | stoichiometry N [1] | stoichiometry N (cryo-EM structure)
1 | human GLT25D1/ColGalT1 (procollagen galactosyltransferase 1), amino acids 30-622, wild type (from UniProt Q8NBJ5 30-622) (enzyme) | 2 | –
2 | human LH3/PLOD3 (multifunctional procollagen lysine hydroxylase and glycosyltransferase LH3), wild type (enzyme, N-linked glycans at N63 and N548 (seen in the cryo-EM map)) SDRPRGRDPVNPEKLLVITVATAETEGYLRFLRSAEFFNYTVRTLGLGEEWRGGDVARTVGGGQKVRWLKKEMEKYADREDMIIMFVDSYDVILAGSPTELLKKFVQSGSRLLFSAESFCWPEWGLAEQYPEVGTGKRFLNSGGFIGFATTIHQIVRQWKYKDDDDDQLFYTRLYLDPGLREKLSLNLDHKSRIFQNLNGALDEVVLKFDRNRVRIRNVAYDTLPIVVHGNGPTKLQLNYLGNYVPNGWTPEGGCGFCNQDRRTLPGGQPPPRVFLAVFVEQPTPFLPRFLQRLLLLDYPPDRVTLFLHNNEVFHEPHIADSWPQLQDHFSAVKLVGPEEALSPGEARDMAMDLCRQDPECEFYFSLDADAVLTNLQTLRILIEENRKVIAPMLSRHGKLWSNFWGALSPDEYYARSEDYVELVQRKRVGVWNVPYISQAYVIRGDTLRMELPQRDVFSGSDTDPDMAFCKSFRDKGIFLHLSNQHEFGRLLATSRYDTEHLHPDLWQIFDNPVDWKEQYIHENYSRALEGEGIVEQPCPDVYWFPLLSEQMCDELVAEMEHYGQWSGGRHEDSRLAGGYENVPTVDIHMKQVGYEDQWLQLLRTYVGPMTESLFPGYHTKARAVMNFVVRYRPDEQPSLRPHHDSSTFTLNVALNHKGLDYEGGGCRFLRYDCVISSPRKGWALLHPGRLTHYHEGLPTTWGTRYIMVSFVDP | – | 2
